Columns and labels:
[1] = biological target: T1, recombinant human RKIP (rhRKIP) wild type, histidine-tagged (human), P30086; assay: LC Q-TOF mass spectrometry; purified rhRKIP WT and mutant proteins in buffer at pH 7.4; peaks around 22 kDa (monomer) and 44 kDa (dimer); conditions: remark: other sources report otherwise
[2] = biological target: T1, recombinant human RKIP (rhRKIP) wild …; assay: non-reducing SDS-PAGE; purified rhRKIP in sample loading buffer without β-mercaptoethanol or boiling; Coomassie Brilliant Blue staining or anti-His immunoblot; conditions: remark: other sources report otherwise

- stoichiometry N [1]: 2
- stoichiometry N [2]: 2
B1: recombinant human RKIP (rhRKIP) wild type, histidine-tagged, P30086 1-187 (natural protein)
chain: MPVDLSKWSGPLSLQEVDEQPQHPLHVTYAGAAVDELGKVLTPTQVKNRPTSISWDGLDSGKLYTLVLTDPDAPSRKDPKYREWHHFLVVNMKGNDISSGTVLSDYVGSGPPKGTGLHRYVWLVYEQDRPLKCDEPILSNRSGDHRGKFKVASFRKKYELRAPVAGTCYQAEWDDYVPKLYEQLSGK

From PMC11767649
